Variants at the floor of the assay were thinned out.
B1: TPR 5TU (parent)
chain: GGAUCUUCUCGAUCUAACAAAAAAGACAAAUCUGCCACAAAGCUUGAGAGCAUCUUCGGAUGCAGAGGCGGCAGCCUUCGGUGGCGCGAUAGCGCCAACGUUCUCAACUAUGACACGCAAAACGCGUGCUCCGUUGAAUGGAGUUUAUCAUG

Variants of: B1
Test: polymerase ribozyme fitness, log enrichment relative to wild type (log ratio); higher = more active; in vitro selection for triplet polymerase activity
How it was run: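 Mutant libraries of both subunits of a heterodimeric triplet polymerase ribozyme were PCR-built, transcribed, and selected once in triplicate, with frozen incubation at −7 °C and capture of gel-excised extended constructs on streptavidin beads before RT-PCR. Illumina sequencing of input and output libraries was filtered to genotypes with ≥10 input reads and ≥1 read per output. Fitness is the logarithm of genotype enrichment over wild-type enrichment, using inverse-variance-weighted replicate averages. The logarithm is base 2.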

Variant | polymerase ribozyme fitness (log ratio)
A40U G50U A60C A73G C85U U151G | ≤ -4.2
A40C U56G A64U C87U G143U | ≤ -4.2
A40U G59C C132U U145G | -1.94
A40C A49G U55A G80A C85U G140C | ≤ -4.2
A40U C105G | -0.905
A40U C95U C129A U134C | -3.65
A40G C54G G126A | -3.46
A40U G152U | -3.71
A40U U61A A122G | -1.1
A40G A41U U53A C123A C125U U134G | -3.73
A40U C79G G88U A107G C149A | ≤ -4.2
A40C C51U G84A | -0.15
A40G | -1.51
A40U | 0.097
A40C | 0.603
A40U G50C C57U U82A | -2.79
A40G U56A G59U G68A C95A U135A A150U | ≤ -4.2
A40U G88A | -3.65
A40C U109C | -3.47
A41C C85U | -1.29
A41C C96U A107U C131A G133A U146C | ≤ -4.2
A40C U109C C116U C131U A147U | -2.36
A40U U56A | -0.0589
A40U C57U U61A U82G A98C A106U C116U A121U C132U A138C | ≤ -4.2

Variant | polymerase ribozyme fitness (log ratio)
A40C A49U A52U A60G G83U | ≤ -4.2
A40C U61A A91G A97U G141U | ≤ -4.2
A40U A60G | 0.828
A40U A60U | -0.238
A40U G92A A119C A120C U148G | ≤ -4.2
A41C G46A C57U C95U A115G | -3.25
A40C G59A G71U G94C U127C | ≤ -4.2
A41C A47C A60U | -2.01
A40U C75U C95U A98U G140A | -3.39
A40U C76U | -0.102
A40C C85G | -1.95
A40G A49G | -3.58
A40C C85A U102G G143A | ≤ -4.2
A40U C87U C105U G136U | -2.13
A40U G71U C85G | ≤ -4.2
A41C G84A | -0.601
A40U A120U G133C | -1.72
A40C U56A G59A C87A A89C G112U A119U G143A | ≤ -4.2
A41C A91G C118G | -3.64
A40U C57A G58C C79G | -3.81
A40U A64G C93A A98G A107C U130G | ≤ -4.2
A40U G83C C96A G152A | -3.95
A41C G48C U56A A89C C103U | -2.34
A40C C93A G143A | -3.22

Variant | polymerase ribozyme fitness (log ratio)
A40C A41C A107U C108G G117C | ≤ -4.2
A40C C96U A150G | -1.3
A40U C114U A121C | -2.44
A41C G67C G83A C95G G143A | ≤ -4.2
A40U U55C U78G U151A | ≤ -4.2
A40U G80A C87A U127G A147C | ≤ -4.2
A40U G141U | 0.96
A41C A49C C75A C95A | ≤ -4.2
A40U U55G G58A A97G | -0.0754
A40C C99U | 0.519
A40U C95U | -1.07
A40G A41U | -2.41
A41C C93U C123U | -1.59
A40C U55G C63U C93U | -0.65
A41C A52G G86U | -2.67
A40C C85G A106G G117C | -1.29
A40U A60C C72U G84U | -2.77
A40U C85U | -0.107
A40U U109A | -1.86
A40C C75A C114G | ≤ -4.2
A40U G42A C63U C114U A119C G141U G143A | ≤ -4.2
A40G C118U | -2.18
A40U C95U G124C G133U | ≤ -4.2
A40C U77C C116A C125U | ≤ -4.2

Variant | polymerase ribozyme fitness (log ratio)
A40C G128U G143U | ≤ -4.2
A40G U55G U56A G88C | ≤ -4.2
A40C A52G G80U C114G G128U G133U | ≤ -4.2
A40C A137G | -1.42
A40U C63A C72A C76A C103G | ≤ -4.2
A40C C57U | 0.521
A40U U56A C85G C114G | -3.79
A40C A60U G70A C103A A107G | ≤ -4.2
A40C G84A G94A C131U U139A | -4.09
A40G C54A G68A G92A | ≤ -4.2
A40C C85G C108G | ≤ -4.2
A41C G86U C123U | -2.13
A40C A98G U146G G152C | ≤ -4.2
A40U A60G A66U A73G A91G C99G | ≤ -4.2
A41C A47G | -0.27
A40C G67C G71C A98G C103A C105G | ≤ -4.2
A41C C87G C114U | ≤ -4.2
A40C C69G C75U A98U U135G U151G | ≤ -4.2
A40G G80C U90G | ≤ -4.2
A41C G143A | -1.42
A41C A49C C75U C85A C105A A137U A142C G143U | ≤ -4.2
A40U G92U A98C C103G A120C U134A | -3.87
A40U C95U G143U | ≤ -4.2
A40U C57G A91U A138U | ≤ -4.2

Variant | polymerase ribozyme fitness (log ratio)
A40C U55G G59C C75A U82G C96G U111G U148A A150C | ≤ -4.2
A40C U55G C85U | 0.238
A40U G70C C79G A106G U135C U145G A150C | ≤ -4.2
A41C A47C G88U A97U | -4.03
A40G A64U U134G A142C | ≤ -4.2
A41C C43A A60G | ≤ -4.2
A40U C51U G83A | -0.935
A40C U61A C76A | ≤ -4.2
A41C C76A G84A A120C | -2.53
A40G G92U C108U G124A G128U | ≤ -4.2
A41C C51U | -0.722
A40C C85G C87U C93U U148C | ≤ -4.2
A41C G83U | -0.922
A40U U55A G58C C85G A119U | -2.59
A40U U82A C95G | -1.43
A40C U55G G84C C96U C103U C118U | -3.51
A41C C76U G84U | -2.96
A40G C85G A89G | ≤ -4.2
A40G C54U C96U G141U | -2.2
A41C C125G | -0.815
A40U U55G C96G | -0.541
A40C U53A A110C | -4.04
A40C U134G A142G U145A | -3.46
A41C G50A G86A A98G | -3.62

Variant | polymerase ribozyme fitness (log ratio)
A40C U44A U102C U139A A142G A147C U148A A150G | ≤ -4.2
A40U A89C | -0.129
A40C G59C C63A G65U C87A C95U C125A G126U | ≤ -4.2
A40C U90C | -4.09
A40G A97G | -1.8
A40C U45A C54U | ≤ -4.2
A40G G58C G94A G141A | -3.65
A40G C93U C99U | -4.16
A40U U130A | -3.96
A40U G92C A147C | -0.761
A40C C87U G117C | -0.313
A40C G50U C85U | 0.316
A40U A41U G46A C57A C87A G92U | 0.0643
A40U G68C C79U G84A C96A A138C | ≤ -4.2
A40C U45A A66U G83A G88U A97C A122U A138U | ≤ -4.2
A41C A142G U144C G152A | -3.09
A40U A47C C51U U82C C118G | -2.44
A40U G94A G126A | -0.19
A40U G86U C93U C149U | -3.56
A40C U55A A107G A142G | ≤ -4.2
A40C G126A G128U | -4.14
A41C C96A U146A | -0.97
A41C C57A C99G U104C G126C U144G | -3.09
A41C A73G U145C | -1.73

Variant | polymerase ribozyme fitness (log ratio)
A40G U56A G67A G83A | ≤ -4.2
A41C C43U C125U | ≤ -4.2
A40C A47C A60C G71U A91C C93U | ≤ -4.2
A40C C93U | 0.422
A40C C76U | 0.0931
A40U U56A C75G | -3.97
A40U G92A A120U C132A G141C | ≤ -4.2
A40U C43U G70A U78G C87A A147G | ≤ -4.2
A40G U90A | ≤ -4.2
A40G C99G | -3.79
A40U G140U | -3.81
A40U A60G A89U U134C | -0.16
A41C C132A | -2.55
A40C G50U C69G C116U | -3.24
A41C G92U | -1.08
A40U G92A A120C | -2.75
A41C C76U G81A A110C | ≤ -4.2
A40C A52C G81A G83A C93G | ≤ -4.2
A41C C43A A91C C99U A113U | ≤ -4.2
A41C C57U U82C G141A | -1.09
A41C G59A G86U | -2.6
A40C A52C | -1.04
A40U G92A A98U U145G A147U | -4.09
